We go through one molecule from US11820827B2, “Methods of treating myelodysplastic syndrome and acute myeloid leukemia with nonfucosylated anti-CD70 antibodies” (Seagen Inc., priority 2019, dated 2023).

Assay [1] has as its system FcγRIIIa (F/F low affinity and V/V high affinity alleles). As to the kind of experiment: BLI binding affinity to FcγRIIIa (low and high affinity alleles). On the set-up: species or system human. The conditions noted are these: compared with SGN-70. An excerpt: Parameters are listed Table 1. Biotinylated avi-tagged human FcγR-monomeric Fc N297A LALA-PG and Fc receptor neonatal (FcRN) monomeric Fc N297A IHH fusion proteins (designed and expressed at Seattle Genetics) were loaded onto high precision streptavidin biosensors (ForteBio) to responses between 0.3 to 1 nm following a 100 second sensor check in Buffer A (0.1% bovine serum albumin [BSA], 0.02% Tween20, 1× phosphate-buffered saline [PBS] pH 7.4). After another baseline measurement, titrated antibodies were associated for 600, 10, 100, 50, and 10 seconds and dissociated for 1000, 50, 100, 500, and 50 seconds in Buffer B (1% casein, 0.2% Tween20, 1×PBS pH 7.4) for FcγRI, IIa, IIIa, FcRN pH 6, and FcRN pH 7.4, respectively. Prior to analysis, the references were subtracted in each assay. All the sensorgrams were processed with a Y-axis alignment at the start of association and an inter-step dissociation correction. A 1:1 Langmuir isotherm global fit model was used to fit the curves.
In general terms: In BLI a coated tip is dipped into the sample, and binding shifts an interference pattern.

Assay [2] has as its system MOLM-13 CD70+ AML cell line. As to the kind of experiment: ADCC assay with NK effector cells, MOLM-13. It is filed as cell-based, human. The conditions noted are these: effector-to-target ratio 10:1, 4 h. Here is the method: (§1) ADCC activity was evaluated using two CD70+AML cell lines as an ADCC target (FIGS. 3A and 3B). The AML cell lines, MOLM-13 (FIG. 3A) and NOMO-1 (FIG. 3B), were labeled and mixed with titrations of test antibodies or isotype control. Effector cells were isolated from cryopreserved normal donor PBMC using the EasySep Human NK Cell Enrichment Kit (Stem Cell Technologies). Effector cells were added at an effector-to-target cell ratio of 10:1 with […]. After a 4-h incubation, the percent specific cell lysis was calculated.
(§2) AML cell lines were grown in appropriate growth medium while incubating at 37° C. in 5% CO2. Suspended cells were counted using ViCell XR cell counter. The required volume of cells was mixed with fresh growth medium and plated at seeding densities of 0.5 M/mL.
(§3) The following protocol was used to assess ADCC activity: • 1. Two vials of huPBMCs were thawed in the 37° C. waterbath and resuspended in 1% FBS-RPMI media. Cells were spun down and then NK cells were isolated using the EasySep human NK cell enrichment kit following the manufacturer's protocol. • 2. […] Absorbance per well was measured using the SpectraMax 190 plate reader at 490 nm and the acquired values were converted to text file and exported to Excel and into GraphPad Prism for further data analysis. • 9. […]

In assay [3] the test system is NOMO-1 CD70+ AML cell line. As to the kind of experiment: ADCC assay with NK effector cells, NOMO-1. It is filed as cell-based, human. Conditions: effector-to-target ratio 10:1, 4 h. Here is the method:
as §1, §2, §3

Assay [4] relates to T regulatory cells (Treg) in PBMCs. As to the kind of experiment: Treg depletion in PBMCs. It is filed as cell-based, human. Conditions: 24 hours. As to the method:
(§4) At the end of the experiment cells were stained with Zombie Aqua Viability Dye and total viable Treg naïve and memory CD4 and CD8 T cell numbers were assessed. […] Fucosylated (WT Clone 13 IgG1) and nonfucosylated (SEA Clone 13 IgG1) antibodies targeting TIGIT were used as positive controls (FIG. 4E-4H).

The subject of the next assay is CD8 T cells in PBMCs. As to the kind of experiment: CD8 T cell depletion in PBMCs. The conditions noted are these: 24 hours. It is filed as cell-based, human. Here is the method:
as §4

The test system of assay [5] is MOLM-13 CD70+ target cells. Nature of the assay: ADCP with monocyte-derived macrophages, MOLM-13. It is filed as cell-based, human. The conditions noted are these: flow cytometry, antibody dose-dependent. Here is the method: Phagocytosis of fluorescently labeled target cells was determined by flow cytometry. Phagocytosis was measured for the appearance of double-labeled coincident events (fluorescent target cells) and anti-CD11c positivity to identify monocyte/macrophages.
The following protocol was used to assess […] activity on AML cell lines: • 1. Target cells were labeled using the PKH26 Red Fluorescent Cell Linker Mini Kit (Sigma Aldrich) and following the manufacturer's instructions. • 2. Cells (4000 cells/well) were incubated with the indicated test articles for 30 minutes, washed and resuspended in RPMI plus 10% ultra-low IgG FBS. • 3. PBMC-derived macrophages (100,000 cells/well), generated by incubating PBMC-derived monocytes with 500 U/mL (50 ng/mL) GM-CSF for 10-12 days, were added to the target cells and incubated at 37° C. for 2 hours. • 4. Plates were centrifuged and cells resuspended in 100 μl of APC-CD11 antibody (macrophage marker) and incubated on ice for 30 minutes. • 5. Cells were washed, resuspended in PBS and analyzed by flow cytometry to determine the percentage of phagocytosis
Background: A flow cytometer gives signals particle by particle.

Assay [6] relates to NOMO-1 CD70+ AML cell line. As to the kind of experiment: CDC with normal human serum, NOMO-1. It is filed as cell-based. The conditions noted are these: normal human serum not heat inactivated. Here is the method: AML cell lines positive for CD70 were fluorescently labeled and treated with increasing concentrations of CD70 directed antibodies. Cells were then exposed to human compliment and lysis determined as release of fluorescent dye.
The following protocol was used to assess CDC activity on AML cell lines: • 1. Cells were incubated with […] anti-CRP monoclonal antibodies mix (anti-hCD46, anti-hCD55, anti-hCD59) for 30 minutes on ice. • 2. Cells were washed and plated (200,000 cells/well) in media containing non-heat-inactivated serum, Sytox Green (Life technology), and antibodies, which were added at the indicated final concentration, for 2 hours at 37° C. • 3. Cell dead was quantified by detecting Sitox Green fluorescent signal on an Envison plate reader (Perkin Elmer) and normalized over positive control (1% Triton X-100 treated cells).

B1: SEA-CD70: humanized, nonfucosylated monoclonal IgG1 antibody targeting CD70 (nonfucosylated h1F6) (antibody, chains of the INN, looked up, V domains shown)
VH: QVQLVQSGAEVKKPGASVKVSCKASGYTFTNYGMNWVRQAPGQGLKWMGWINTYTGEPTYADAFKGRVTMTRDTSISTAYMELSRLRSDDTAVYYCARDYGDYGMDYWGQGTTVTVSS
VL: DIVMTQSPDSLAVSLGERATINCRASKSVSTSGYSFMHWYQQKPGQPPKLLIYLASNLESGVPDRFSGSGSGTDFTLTISSLQAEDVAVYYCQHSREVPWTFGQGTKVEIK
modifications: nonfucosylated
Regarding B1, the “binding affinity to FcγRIIIA” value in assay [1] is listed as “much higher binding affinity”. Moreover, the “lysis of target cells in ADCC assay” value in assay [2] and in assay [3] was “induced lysis of two CD70 positive AML cell lines in a dose-dependent fashion” each time. In addition, the figures for the “T regulatory cell depletion” value in assay [4] (donor homozygous for high affinity FcγRIIIa (V/V 158)) and in assay [4] (donor homozygous for low affinity FcγRIIIa (F/F 158)) were “did not induce Treg cell depletion” and “Neither CD70 targeting antibody induced T regulatory cell depletion”, respectively. The “CD8+ cell depletion” value in the assay with CD8 T cells in PBMCs (V/V high affinity donor) and with CD8 T cells in PBMCs (low affinity (F/F 158) donor) was “Neither fucosylated nor nonfucosylated anti-CD70 antibodies depleted CD8+ cells” each time. Besides, the “phagocytosis of antibody-coated target cells by macrophages” value in assay [5] is given as “readily phagocytosed target cells”. Besides, the “cell lysis by complement fixation” value in assay [6] was “lysed in an antibody-specific, dose-dependent manner”.
